The text below walks through data of patent EP2559758A1, “Modified glyceraldehyde-3-phosphate dehydrogenase from corynebacterium glutamicum and uses thereof” (Technische Universität Hamburg-Harburg, priority 2011, dated 2013).

Substrate in data set [1]: NC(=O)c1ccc[n+]([C@@H]2O[C@H](COP(=O)(O)OP(=O)(O)OC[C@H]3O[C@@H](n4cnc5c(N)ncnc54)[C@H](O)[C@@H]3O)[C@@H](O)[C@H]2O)c1
As to the kind of experiment: GAPDH enzyme activity, coenzyme kinetics (NAD(P)H absorbance at 340 nm). The data set is classed as biochemical, C. glutamicum. To be noted: coenzyme varied, 25°C, pH 8.5, 1.5 mM glyceraldehyde-3-phosphate, 50 mM Na2HPO4, mean ± S.D. Here is the method:
(§1) The above recombinant E. coli strains were cultured at 37°C in LB medium containing 100 mg/L kanamycine until an OD600 of 0.6 was reached. Then, (isopropyl-beta-D-thiogalactopyranoside (IPTG) was added to the medium to a final concentration of 0.1 mM, and the bacteria were cultured at 20°C for another 12-14 h. The E. coli cells were then harvested and washed and suspended in the buffer of 50 mM Na2HPO4 (pH 7.5), 0.2 mM EDTA and 0.1 mM dithiothreitol. Suspended cells were disrupted by sonication and centrifuged at 13.000 rpm for 1 h. The supernatant was purified by use of a Ni^2+ NTA column (GE Healthcare Bio-Sciences, Piscataway, NJ).
(§2) The enzyme activity of glyceraldehyde-3-phosphate dehydrogenase was determined by monitoring the change of NAD(P)H in absorbance at 340 nm at 25°C using a Multiskan® spectrophotometer (Thermo Scientific, Germany). Initial rate measurements were carried out in 50 mM triethanolamine hydrochloride buffer (pH 8.5), 0.2 mM EDTA, 50 mM Na2HPO4, 1.5 mM glyceraldehyde-3-phosphate (Clermont et al., 1993). When saturation could be reached, kinetic parameters were obtained from activity measurements with coenzyme concentrations ranging from 0.1 Km to 10 Km. Each rate measurement was run in triplicate. One unit of enzyme activity corresponds to one µmol of NAD(P)H formed per minute. Kinetic constants were obtained from non-linear regression data analysis and expressed as mean ± S.D.
(§3) The kinetic parameters determined for wild-type and mutated forms of glyceraldehyde-3-phosphate dehydrogenase are shown in Table 1. It can be seen that coenzyme specificity of glyceraldehyde-3-phosphate has been changed from NAD to NADP by the introduction of mutations at amino positions 35, 36, 37 and 192. More specifically, mutants comprising amino acid exchanges D35G/L36T/T37K, D35G/L36T/P192S, D35G/L36R/P192S, or D35G/L36T/T37K/P192S show a high catalytic efficiency and can utilize both NAD^+ and NADP^+. Table 1: Kinetic parameters of wild-type and mutated glyceraldehyde-3-phosphate dehydrogenase

Substrate in data set [2]: NC(=O)c1ccc[n+]([C@@H]2O[C@H](COP(=O)(O)OP(=O)(O)OC[C@H]3O[C@@H](n4cnc5c(N)ncnc54)[C@H](OP(=O)(O)O)[C@@H]3O)[C@@H](O)[C@H]2O)c1
Described as above. The data set is classed as biochemical, C. glutamicum. To be noted: coenzyme varied, 25°C, pH 8.5, 1.5 mM glyceraldehyde-3-phosphate, 50 mM Na2HPO4, mean ± S.D. How it is done: as §1, §2, §3

B1: C. glutamicum glyceraldehyde-3-phosphate dehydrogenase (gapA) variant D35G/L36T/T37K (Corynebacterium glutamicum ATCC 13032; D35G/L36T/T37K) (protein)
chain: MTIRVGINGFGRIGRNFFRAVLERSDDLEVVAVNGTKDNKTLSTLLKFDSIMGRLGQEVEYDDDSITVGGKRIAVYAERDPKNLDWAAHNVDIVIESTGFFTDANAAKAHIEAGAKKVIISAPASNEDATFVYGVNHESYDPENHNVISGASCTTNCLAPMAKVLNDKFGIENGLMTTVHAYTGDQRLHDAPHRDLRRARAAAVNIVPTSTGAAKAVALVLPELKGKLDGYALRVPVITGSATDLTFNTKSEVTVESINAAIKEAAVGEFGETLAYSEEPLVSTDIVHDSHGSIFDAGLTKVSGNTVKVVSWYDNEWGYTCQLLRLTELVASKL
notes: His-tag (inferred: pET-28a+ NdeI cloning, Ni-NTA purification) (N); His-tag (inferred: reverse primer has no stop codon and reads in frame into the vector's C-terminal His-tag) (C); made in house; host or cells: E. coli BL21 (DE3) CodonPlus RIPL
Take B1: in data set [1] (other: D35G/L36T/T37K), the Km is 470 ± 32 µM, the kcat is 4.2 ± 0.55 s⁻¹ and the kcat/Km was determined as 536 ± 48 mM/min. Further, in data set [2] (other: D35G/L36T/T37K), the Km was found to be 100 ± 12 µM, the kcat amounted to 8 ± 0.6 s⁻¹ and the kcat/Km was determined as 4800 ± 232 mM/min.

B2: C. glutamicum glyceraldehyde-3-phosphate dehydrogenase (gapA) variant D35G/L36T/P192S (Corynebacterium glutamicum ATCC 13032; D35G/L36T/P192S) (protein)
chain: MTIRVGINGFGRIGRNFFRAVLERSDDLEVVAVNGTTDNKTLSTLLKFDSIMGRLGQEVEYDDDSITVGGKRIAVYAERDPKNLDWAAHNVDIVIESTGFFTDANAAKAHIEAGAKKVIISAPASNEDATFVYGVNHESYDPENHNVISGASCTTNCLAPMAKVLNDKFGIENGLMTTVHAYTGDQRLHDASHRDLRRARAAAVNIVPTSTGAAKAVALVLPELKGKLDGYALRVPVITGSATDLTFNTKSEVTVESINAAIKEAAVGEFGETLAYSEEPLVSTDIVHDSHGSIFDAGLTKVSGNTVKVVSWYDNEWGYTCQLLRLTELVASKL
notes: as for B1
In the case of B2, in data set [1] (other: D35G/L36T/P192S), the Km came out at 120 ± 4 µM, the kcat was found to be 3.78 ± 0.283 s⁻¹ and the kcat/Km came to 1952 ± 113 mM/min. In addition, in data set [2] (other: D35G/L36T/P192S), the Km was 70 ± 3 µM and the kcat was determined as 6.58 ± 0.467 s⁻¹.

B3: C. glutamicum glyceraldehyde-3-phosphate dehydrogenase (gapA) variant D35G/L36R/P192S (Corynebacterium glutamicum ATCC 13032; D35G/L36R/P192S) (protein)
chain: MTIRVGINGFGRIGRNFFRAVLERSDDLEVVAVNGRTDNKTLSTLLKFDSIMGRLGQEVEYDDDSITVGGKRIAVYAERDPKNLDWAAHNVDIVIESTGFFTDANAAKAHIEAGAKKVIISAPASNEDATFVYGVNHESYDPENHNVISGASCTTNCLAPMAKVLNDKFGIENGLMTTVHAYTGDQRLHDASHRDLRRARAAAVNIVPTSTGAAKAVALVLPELKGKLDGYALRVPVITGSATDLTFNTKSEVTVESINAAIKEAAVGEFGETLAYSEEPLVSTDIVHDSHGSIFDAGLTKVSGNTVKVVSWYDNEWGYTCQLLRLTELVASKL
notes: as for B1
As for B3, in data set [1] (other: D35G/L36R/P192S), the Km was 58 ± 2 µM, the kcat was determined as 2.87 ± 0.183 s⁻¹ and the kcat/Km is 2954 ± 228 mM/min. In addition, in data set [2] (other: D35G/L36R/P192S), the Km stood at 100 ± 12 µM, the kcat is 6.48 ± 0.617 s⁻¹ and the kcat/Km is 3885 ± 247 mM/min.

B4: C. glutamicum glyceraldehyde-3-phosphate dehydrogenase (gapA), Wild-type, SEQ ID NO:1 (Corynebacterium glutamicum ATCC 13032) (protein)
chain: MTIRVGINGFGRIGRNFFRAVLERSDDLEVVAVNDLTDNKTLSTLLKFDSIMGRLGQEVEYDDDSITVGGKRIAVYAERDPKNLDWAAHNVDIVIESTGFFTDANAAKAHIEAGAKKVIISAPASNEDATFVYGVNHESYDPENHNVISGASCTTNCLAPMAKVLNDKFGIENGLMTTVHAYTGDQRLHDAPHRDLRRARAAAVNIVPTSTGAAKAVALVLPELKGKLDGYALRVPVITGSATDLTFNTKSEVTVESINAAIKEAAVGEFGETLAYSEEPLVSTDIVHDSHGSIFDAGLTKVSGNTVKVVSWYDNEWGYTCQLLRLTELVASKL
notes: as for B1
For the protein B4, in data set [1] (other: Wild-type), the Km was determined as 48 ± 2 µM, the kcat is 6.45 ± 0.467 s⁻¹ and the kcat/Km was determined as 8063 ± 540 mM/min.

B5: C. glutamicum glyceraldehyde-3-phosphate dehydrogenase (gapA) variant D35G/L36T (Corynebacterium glutamicum ATCC 13032; D35G/L36T) (protein)
chain: MTIRVGINGFGRIGRNFFRAVLERSDDLEVVAVNGTTDNKTLSTLLKFDSIMGRLGQEVEYDDDSITVGGKRIAVYAERDPKNLDWAAHNVDIVIESTGFFTDANAAKAHIEAGAKKVIISAPASNEDATFVYGVNHESYDPENHNVISGASCTTNCLAPMAKVLNDKFGIENGLMTTVHAYTGDQRLHDAPHRDLRRARAAAVNIVPTSTGAAKAVALVLPELKGKLDGYALRVPVITGSATDLTFNTKSEVTVESINAAIKEAAVGEFGETLAYSEEPLVSTDIVHDSHGSIFDAGLTKVSGNTVKVVSWYDNEWGYTCQLLRLTELVASKL
notes: as for B1
As for B5, in data set [1] (other: D35G/L36T), the Km turned out to be 220 ± 38 µM, the kcat is 4.77 ± 0.617 s⁻¹ and the kcat/Km came to 1300 ± 154 mM/min. Moreover, in data set [2] (other: D35G/L36T), the Km turned out to be 280 ± 16 µM, the kcat turned out to be 5.87 ± 0.867 s⁻¹ and the kcat/Km amounted to 1257 ± 118 mM/min.

B6: C. glutamicum glyceraldehyde-3-phosphate dehydrogenase (gapA) variant D35G/L36T/T37K/P192S (Corynebacterium glutamicum ATCC 13032; D35G/L36T/P192S/T37K) (protein)
chain: MTIRVGINGFGRIGRNFFRAVLERSDDLEVVAVNGTKDNKTLSTLLKFDSIMGRLGQEVEYDDDSITVGGKRIAVYAERDPKNLDWAAHNVDIVIESTGFFTDANAAKAHIEAGAKKVIISAPASNEDATFVYGVNHESYDPENHNVISGASCTTNCLAPMAKVLNDKFGIENGLMTTVHAYTGDQRLHDASHRDLRRARAAAVNIVPTSTGAAKAVALVLPELKGKLDGYALRVPVITGSATDLTFNTKSEVTVESINAAIKEAAVGEFGETLAYSEEPLVSTDIVHDSHGSIFDAGLTKVSGNTVKVVSWYDNEWGYTCQLLRLTELVASKL
notes: as for B1
Turning to B6, in data set [1] (other: D35G/L36T/T37K/P192S), the Michaelis constant (Km) was determined as 100 ± 14 µM, the kcat is 2.73 ± 0.2 s⁻¹ and the kcat/Km was 1640 ± 108 mM/min. Further, in data set [2] (other: D35G/L36T/T37K/P192S), the Km is 70 ± 3 µM, the kcat amounted to 7.13 ± 0.75 s⁻¹ and the kcat/Km is 5868 ± 352 mM/min.

B7: C. glutamicum glyceraldehyde-3-phosphate dehydrogenase (gapA) variant D35G/L36R (Corynebacterium glutamicum ATCC 13032; D35G/L36R) (protein)
chain: MTIRVGINGFGRIGRNFFRAVLERSDDLEVVAVNGRTDNKTLSTLLKFDSIMGRLGQEVEYDDDSITVGGKRIAVYAERDPKNLDWAAHNVDIVIESTGFFTDANAAKAHIEAGAKKVIISAPASNEDATFVYGVNHESYDPENHNVISGASCTTNCLAPMAKVLNDKFGIENGLMTTVHAYTGDQRLHDAPHRDLRRARAAAVNIVPTSTGAAKAVALVLPELKGKLDGYALRVPVITGSATDLTFNTKSEVTVESINAAIKEAAVGEFGETLAYSEEPLVSTDIVHDSHGSIFDAGLTKVSGNTVKVVSWYDNEWGYTCQLLRLTELVASKL
notes: as for B1
In the case of B7, in data set [1] (other: D35G/L36R), the Km was found to be 180 ± 17 µM, the kcat was found to be 3.4 ± 0.367 s⁻¹ and the kcat/Km was found to be 1134 ± 132 mM/min. Also, in data set [2] (other: D35G/L36R), the Km turned out to be 310 ± 34 µM, the kcat is 5.8 ± 0.433 s⁻¹ and the kcat/Km amounted to 1123 ± 176 mM/min.

B8: C. glutamicum glyceraldehyde-3-phosphate dehydrogenase (gapA) variant D35G (Corynebacterium glutamicum ATCC 13032; D35G) (protein)
chain: MTIRVGINGFGRIGRNFFRAVLERSDDLEVVAVNGLTDNKTLSTLLKFDSIMGRLGQEVEYDDDSITVGGKRIAVYAERDPKNLDWAAHNVDIVIESTGFFTDANAAKAHIEAGAKKVIISAPASNEDATFVYGVNHESYDPENHNVISGASCTTNCLAPMAKVLNDKFGIENGLMTTVHAYTGDQRLHDAPHRDLRRARAAAVNIVPTSTGAAKAVALVLPELKGKLDGYALRVPVITGSATDLTFNTKSEVTVESINAAIKEAAVGEFGETLAYSEEPLVSTDIVHDSHGSIFDAGLTKVSGNTVKVVSWYDNEWGYTCQLLRLTELVASKL
notes: as for B1
B8: in data set [1] (other: D35G), the Km was found to be 540 ± 70 µM, the kcat was 6.37 ± 0.533 s⁻¹ and the kcat/Km was found to be 707 ± 82 mM/min. In addition, in data set [2] (other: D35G), the Km is 830 ± 120 µM, the kcat was 2.97 ± 0.183 s⁻¹ and the kcat/Km came out at 215 ± 22 mM/min.
